Measurements published in US9486502B2, “Methods of administering interferon gamma to absorb fluid from the subretinal space” (The United States of America, as represented by the …, priority 2008, dated 2016).
“Also recorded” adds a separate entry of the source.

Legend:
hfRPE = experiment: quantitative real-time PCR of gene expression in IFNγ-treated hfRPE; type: cell-based, human; conditions: for Threshold Cycle (Ct) CFTR / Threshold Cycle (Ct) IFNGR1 / Threshold Cycle (Ct) IFNGR2 / Threshold Cycle (Ct) IRF-1 / Threshold Cycle (Ct) IRF-2 / Threshold Cycle (Ct) PIAS1 / Threshold Cycle (Ct) SOCS3 / Threshold Cycle (Ct) STAT1 / Threshold Cycle (Ct) NOS2A / Threshold Cycle (Ct) IRF-8: IFNγ 25 ng/ml
Protocol: qRT-PCR was performed as previously described in Li, R. et al., 2007, Invest Ophthalmol Vis Sci, 48, 5722-5732—incorporated by reference in its entirety herein. Confluent monolayers of hfRPE cultured in 24-well plates were treated with IFNγ (25 ng/ml) in SFM and harvested at 0 minutes, 30 minutes, 2 hours, 6 hours, 15 hours and 24 hours, in triplicate for each time point. 1 μg total mRNA isolated from the harvested cells (RNeasy Kit, Qiagen) was reverse-transcribed (SuperScript® III First-Strand Synthesis System for RT-PCR, Invitrogen). Real-time PCR (TagMan®, Applied Biosystems) was used to quantify expression of the interferon regulatory factors IRF-1, IRF-2, and IRF-8; signal transducer and activator of transcription 1 (STAT1); suppressor of cytokine signaling 3 (SOCS3); protein inhibitor of activated STAT1 (PIAS1); inducible nitric oxide synthase (NOS2A); IFNγ receptor subunit R1 (IFNGR1); IFNα receptor subunit R1 (IFNAR1); IFNγ receptor subunit R2 (IFNGR2); cystic fibrosis transmembrane conductance regulator (CFTR); and Glyceraldehyde 3-phosphate dehydrogenase (GAPDH). The mRNA concentration of each gene was normalized against GAPDH. qRT-PCR was performed on the ABI Sequence Detection System 7900 (Applied Biosystems).

hfRPE cells = experiment: wound healing assay, hfRPE migration; type: cell-based, human; conditions: 48 hours, proliferation suppressed with mitomycin C
Protocol: The wound healing assay was used to study the effects of inflammatory cytokines on hfRPE cell migration, as described previously in Li, R., et al. Invest Ophthalmol Vis Sci, 2007, 48, 5722-5732, incorporated herein by reference in its entirety. Cell proliferation was suppressed by incubation with 10 μg/ml mitomycin C (Sigma) for 2 hours before all migration experiments. A circular denuded area (7 mm in diameter) was made in each well using a custom designed cell scraper. After incubation with various inflammatory cytokines for 48 hours, cells were fixed with cold methanol and stained with ethidium homodimer-1 (EthD-1, Invitrogen) according to the manufacturer's instructions. Cell migration was quantified by counting the average number of cells that migrated into the denuded area in 16 microscope fields surrounding the circumference of the denuded area. Each condition was tested in triplicate and repeated using cells from different donors.

B1: IFNγ: pleiotropic cytokine produced by T- and NK-cells; obtained from Peprotech (protein, UniProt P01579 24-161, looked up)
Interferon gamma: QDPYVKEAENLKKYFNAGHSDVADNGTLFLGILKNWKEESDRKIMQSQIVSFYFKLFKNFKDDQSIQKSVETIKEDMNVKFFNSNKKKRDDFEKLTNYSVTDLNVQRKAIHELIQVMAELSPAAKTGKRKRSQMLFRG
In the case of B1, the “IRF-2 mRNA fold change” value (hfRPE; 25 ng/ml IFNγ, hfRPE) is reported as 3 fold, the “up-regulation of IRF-1 transcription” value (hfRPE; 25 ng/ml IFNγ, hfRPE) is reported as > 400 fold and the “up-regulation of STAT1 transcription” value (hfRPE; 25 ng/ml IFNγ, hfRPE) is reported as > 30 fold. The “Threshold Cycle (Ct) CFTR” value (hfRPE; 0 hr) was 38.0, the “Threshold Cycle (Ct) IFNGR1” value (hfRPE; 0 hr) was 26.4 and the “Threshold Cycle (Ct) IFNGR2” value (hfRPE; 0 hr) was 26.0. The “Threshold Cycle (Ct) IRF-1” value (hfRPE; 0 hr) was 31.1, the “Threshold Cycle (Ct) IRF-2” value (hfRPE; 0 hr) was 27.6 and the “Threshold Cycle (Ct) PIAS1” value (hfRPE; 0 hr) was 27.0. For the same molecule, the “Threshold Cycle (Ct) SOCS3” value (hfRPE; 0 hr) was 26.9, the “Threshold Cycle (Ct) STAT1” value (hfRPE; 0 hr) was 26.2 and the “Threshold Cycle (Ct) CFTR” value (hfRPE; 0.5 hr) was 36.9. For the same molecule, the “Threshold Cycle (Ct) IFNGR1” value (hfRPE; 0.5 hr) was 26.4, the “Threshold Cycle (Ct) IFNGR2” value (hfRPE; 0.5 hr) was 26.0 and the “Threshold Cycle (Ct) IRF-1” value (hfRPE; 0.5 hr) was 27.4. For the same molecule, the “Threshold Cycle (Ct) IRF-2” value (hfRPE; 0.5 hr) was 27.6, the “Threshold Cycle (Ct) NOS2A” value (hfRPE; 0.5 hr) was 39.1 and the “Threshold Cycle (Ct) PIAS1” value (hfRPE; 0.5 hr) was 26.9. For the same molecule, the “Threshold Cycle (Ct) SOCS3” value (hfRPE; 0.5 hr) was 25.4, the “Threshold Cycle (Ct) STAT1” value (hfRPE; 0.5 hr) was 25.8 and the “Threshold Cycle (Ct) CFTR” value (hfRPE; 2 hr) was 37.3. The “Threshold Cycle (Ct) IFNGR1” value (hfRPE; 2 hr) was 26.4, the “Threshold Cycle (Ct) IFNGR2” value (hfRPE; 2 hr) was 25.1 and the “Threshold Cycle (Ct) IRF-1” value (hfRPE; 2 hr) was 22.2. For the same molecule, the “Threshold Cycle (Ct) IRF-2” value (hfRPE; 2 hr) was 26.0, the “Threshold Cycle (Ct) IRF-8” value (hfRPE; 2 hr) was 30.9 and the “Threshold Cycle (Ct) NOS2A” value (hfRPE; 2 hr) was 35.9. For the same molecule, the “Threshold Cycle (Ct) PIAS1” value (hfRPE; 2 hr) was 27.2, the “Threshold Cycle (Ct) SOCS3” value (hfRPE; 2 hr) was 24.6 and the “Threshold Cycle (Ct) STAT1” value (hfRPE; 2 hr) was 22.1. For the same molecule, the “Threshold Cycle (Ct) CFTR” value (hfRPE; 6 hr) was 38.5, the “Threshold Cycle (Ct) IFNGR1” value (hfRPE; 6 hr) was 26.3 and the “Threshold Cycle (Ct) IFNGR2” value (hfRPE; 6 hr) was 24.7. The “Threshold Cycle (Ct) IRF-1” value (hfRPE; 6 hr) was 22.3, the “Threshold Cycle (Ct) IRF-2” value (hfRPE; 6 hr) was 25.6 and the “Threshold Cycle (Ct) IRF-8” value (hfRPE; 6 hr) was 31.1. The “Threshold Cycle (Ct) NOS2A” value (hfRPE; 6 hr) was 31.6, the “Threshold Cycle (Ct) PIAS1” value (hfRPE; 6 hr) was 27.1 and the “Threshold Cycle (Ct) SOCS3” value (hfRPE; 6 hr) was 24.0. The “Threshold Cycle (Ct) STAT1” value (hfRPE; 6 hr) was 21.0, the “Threshold Cycle (Ct) IFNGR1” value (hfRPE; 15 hr) was 26.5 and the “Threshold Cycle (Ct) IFNGR2” value (hfRPE; 15 hr) was 25.1. For the same molecule, the “Threshold Cycle (Ct) IRF-1” value (hfRPE; 15 hr) was 22.3, the “Threshold Cycle (Ct) IRF-2” value (hfRPE; 15 hr) was 26.0 and the “Threshold Cycle (Ct) IRF-8” value (hfRPE; 15 hr) was 32.0. The “Threshold Cycle (Ct) NOS2A” value (hfRPE; 15 hr) was 32.7, the “Threshold Cycle (Ct) PIAS1” value (hfRPE; 15 hr) was 26.8 and the “Threshold Cycle (Ct) SOCS3” value (hfRPE; 15 hr) was 24.8. The “Threshold Cycle (Ct) STAT1” value (hfRPE; 15 hr) was 21.3, the “Threshold Cycle (Ct) CFTR” value (hfRPE; 24 hr) was 37.9 and the “Threshold Cycle (Ct) IFNGR1” value (hfRPE; 24 hr) was 26.3. The “Threshold Cycle (Ct) IFNGR2” value (hfRPE; 24 hr) was 25.2, the “Threshold Cycle (Ct) IRF-1” value (hfRPE; 24 hr) was 22.2 and the “Threshold Cycle (Ct) IRF-2” value (hfRPE; 24 hr) was 26.1. The “Threshold Cycle (Ct) IRF-8” value (hfRPE; 24 hr) was 31.9, the “Threshold Cycle (Ct) NOS2A” value (hfRPE; 24 hr) was 33.5 and the “Threshold Cycle (Ct) PIAS1” value (hfRPE; 24 hr) was 26.7. The “Threshold Cycle (Ct) SOCS3” value (hfRPE; 24 hr) was 24.9, the “Threshold Cycle (Ct) STAT1” value (hfRPE; 24 hr) was 21.2 and the “SOCS3 mRNA levels” value (hfRPE; IFNγ-treated hfRPE) was “increased”. The “effect on CFTR mRNA expression” value (hfRPE; IFNγ-treated hfRPE) was “No effect; also recorded: small decrease”, the “effect on IFNGR1 expression” value (hfRPE; IFNγ-treated hfRPE) was “No effect” and the “effect on PIAS1 expression” value (hfRPE; IFNγ-treated hfRPE) was “No effect; also recorded: does not affect”. The “increase of SOCS3 mRNA” value (hfRPE; IFNγ-treated hfRPE) was 7 fold, the “IRF-8 mRNA detectability” value (hfRPE; after 2 hours of IFNγ, constitutive level under detection) was “became detectable” and the “increase in IFNGR2 expression” value (hfRPE; after 6 hours of IFNγ) was “≈ 2 fold”. The “NOS2A expression” value (hfRPE; after 6 hours of IFNγ, constitutive levels undetectable) was “significantly up-regulated” and the “effect on hfRPE cell migration” value (hfRPE cells) was “significantly inhibited”.
